From patent US20220411492A1 (QILU PHARMACEUTICAL, published 2022)
Where two headings read alike, the source gives them in different places.

Legend:
[1] = molecular target: murine CLDN18.2 (mCLDN18.2) (murine) (UniProt P56857); assay: FACS, HEK293-mCLDN18.2 cells
[2] = molecular target: T1, human Claudin 18.2 (hCLDN18.2) (human, UniProt P56856-2 1-261); assay: FACS, PDX-hCLDN18.2 gastric cancer tumor tissue-derived cells
[3] = molecular target: T1, human Claudin 18.2 (hCLDN18.2); assay: cell-based or functional assay
[4] = molecular target: T1, human Claudin 18.2 (hCLDN18.2); assay: FACS, HEK293-hCLDN18.2 cells
[5] = molecular target: T1, human Claudin 18.2 (hCLDN18.2); assay: FACS, PDX-hCLDN18.2 gastric cancer tumor tissue-derived cells; remark: listed apart in the source
[6] = molecular target: T1, human Claudin 18.2 (hCLDN18.2); assay: FACS, HEK293-hCLDN18.2 cells; remark: listed apart in the source
[7] = molecular target: T1, human Claudin 18.2 (hCLDN18.2); assay: cell-based or functional assay; remark: listed apart in the source
[8] = molecular target: murine CLDN18.2 (mCLDN18.2) (murine) (UniProt P56857); assay: FACS, HEK293-mCLDN18.2 cells; remark: listed apart in the source
[9] = molecular target: T1, human Claudin 18.2 (hCLDN18.2); assay: FACS, HEK293-hCLDN18.2 cells; remark: listed apart in the source
[10] = molecular target: T1, human Claudin 18.2 (hCLDN18.2); assay: FACS, HEK293-hCLDN18.2 cells
Procedure: Following transient expression in mammalian cell lines, affinity assays were performed using HEK293-hCLDN18.2 cells and monoclonal cell supernatants were screened by FACS.

[11] = molecular target: T1, human Claudin 18.2 (hCLDN18.2); assay: FACS, HEK293-hCLDN18.2 cells; remark: listed apart in the source
Procedure: (§1) Using flow cytometry measurement, the mean fluorescence intensity (hereinafter referred to as MFI) for each concentration was calculated by the software, and then the half binding concentration (EC₅₀) and the mean maximum fluorescence intensity (Top MFI) were calculated by GraphPad software, and the results were shown in Table 11.

[12] = molecular target: T1, human Claudin 18.2 (hCLDN18.2); assay: FACS, PDX-hCLDN18.2 gastric cancer tumor tissue-derived cells
Procedure: as §1

[13] = molecular target: T1, human Claudin 18.2 (hCLDN18.2); assay: cell-based or functional assay; remark: listed apart in the source
[14] = molecular target: T1, human Claudin 18.2 (hCLDN18.2); assay: cell-based or functional assay; remark: listed apart in the source

Row | EC50 [2] | Mean maximum fluorescence intensity (Top MFI) [2] | CDC EC50 [3] | CDC Maximum lysis (%) [3] | Mean maximum fluorescence intensity (Top MFI) [6] | EC50 [8] | Mean maximum fluorescence intensity (Top MFI) [8] | ADCC EC50 [3] | ADCC Maximum lysis (%) [3] | EC50 [6] | EC50 [11] | Mean maximum fluorescence intensity (Top MFI) [11] | EC50 [12] | Mean maximum fluorescence intensity (Top MFI) [12] | CDC EC50 [13] | CDC Maximum lysis (%) [13] | ADCC EC50 [14] | ADCC Maximum lysis (%) [14] | Molecule | also measured
1 | 12 nM | 16300 MFI | 0.175 mg/L | 96.3% | 23000 MFI | 0.19 mg/L | 65000 MFI | 0.024 mg/L | 54.9% | 0.216 nM |  |  |  |  |  |  |  |  | hu253C4-N31Q-1 (antibody, V domains shown) VH: QVQLVQSGAEVKKPGASVKVSCKASGYIFTSYWIHWVRQAPGQGLEWMGRFYPGTGTAYYNENFEGRVTMTRDTSISTAYMELSRLRSDDTAVYYCAREGYGKGNSMDYWGQGTTVTVSS VL: DIVMTQSPDSLAVSLGERATINCKSSQSLLQSGNQKNYLTWYQQKPGQPPKLLIYWASTRESGVPDRFSGSGSGTDFTLTISSLQAEDVAVYYCQNDYYFPFTFGGGTKLEIK | 
2 | 25.6 nM | 21600 MFI | 0.128 mg/L | 96.1% | 18800 MFI | 0.03 mg/L | 42100 MFI | 0.038 mg/L | 70.3% | 0.145 nM |  |  |  |  |  |  |  |  | hu253C4-N31Q-3 (antibody, V domains shown) VH: QVQLVQSGAEVKKPGASVKVSCKTSGYIFTSYWIHWVRQAPGQGLEWMGRFYPGTGTAYYNENFEGRVTLTADTSISTAYMELSRLRSDDTAVYYCTREGYGKGNSMDYWGQGTTVTVSS VL: DIVMTQSPDSLAVSLGERATINCKSSQSLLQSGNQKNYLTWYQQKPGQPPKLLIYWASTRESGVPDRFSGSGSGTDFTLTISSLQAEDVAVYYCQNDYYFPFTFGGGTKLEIK | 
3 | 11.4 nM | 15600 MFI | 0.149 mg/L | 97.5% | 29000 MFI | 0.026 mg/L | 36800 MFI | 0.037 mg/L | 58.8% | 0.361 nM |  |  |  |  |  |  |  |  | hu253C4-N31Q-2 (antibody, V domains shown) VH: QVQLVQSGAEVKKPGASVKVSCKASGYIFTSYWIHWVRQAPGQGLEWMGRFYPGTGTAYYNENFEGRVTMTRDTSISTAYMELSRLRSDDTAVYYCAREGYGKGNSMDYWGQGTTVTVSS VL: DIVMTQSPDSLAVSLGERVTLNCKSSQSLLQSGNQKNYLTWYQQKPGQPPKLLIYWASTRESGVPDRFSGSGSGTDFTLTVSSVQAEDVAVYYCQNDYYFPFTFGGGTKLEIK | 
4 |  |  |  |  |  | 0.281 mg/L | 84900 MFI |  |  |  | 0.318 nM | 31200 MFI | 29.3 nM | 23000 MFI | 0.123 mg/L | 99.9% | 0.024 mg/L | 63.2% | hu299B2-S32A-4 (antibody, V domains shown, also called humanized antibody hu299B2-S32A) VH: QVQLVQSGAEVKKPGASVKVSCKTSGYIFTNYWIHWVRQAPGQGLEWMGRIYPGTGNTYYNEKFTGRVTLTADTSTSTVYMELSSLRSEDTAVYYCSREGYGKGNSMDYWGQGTTVTVSS VL: DIVMTQSPDSLAVSLGERATINCKSSQSLLNAGNQKNYLTWYQQKPGQPPKLLIYWASTRESGVPDRFSGSGSGTDFTLTISSLQAEDVAVYYCQNAYYYPYTFGGGTKLEIK | 

The remaining lines, values behind:

Row | Molecule | EC50 [2] | Mean maximum fluorescence intensity (Top MFI) [2] | CDC EC50 [3] | CDC Maximum lysis (%) [3] | Mean maximum fluorescence intensity (Top MFI) [6] | EC50 [8] | Mean maximum fluorescence intensity (Top MFI) [8] | ADCC EC50 [3] | ADCC Maximum lysis (%) [3] | EC50 [6] | EC50 [11] | Mean maximum fluorescence intensity (Top MFI) [11] | EC50 [12] | Mean maximum fluorescence intensity (Top MFI) [12] | CDC EC50 [13] | CDC Maximum lysis (%) [13] | ADCC EC50 [14] | ADCC Maximum lysis (%) [14] | also measured
5 | chimeric antibody ch-175D10 from patent CN103509110B | 24.9 nM | 5700 MFI | 1.55 mg/L | 87.8% | 26900 MFI | 1.01 nM | 4190 MFI |  |  |  |  |  |  |  |  |  |  |  | EC50 [1]: 0.136 mg/L; Mean maximum fluorescence intensity (Top MFI) [1]: 86400 MFI; EC50 [4]: 0.156 mg/L; Mean maximum fluorescence intensity (Top MFI) [4]: 2840 MFI; EC50 [5]: 63.9 nM; Mean maximum fluorescence intensity (Top MFI) [5]: 7160 MFI; ADCC EC50 [7]: 0.021 mg/L; ADCC Maximum lysis (%) [7]: 31.8%; CDC EC50 [7]: 1.19 mg/L; CDC Maximum lysis (%) [7]: 87.4%; EC50 [9]: 0.881 nM; Mean maximum fluorescence intensity (Top MFI) [9]: 5450 MFI
6 | ch-253C4-S32A (antibody, V domains shown, also called chimeric antibody of 253C4-S32A) VH: QVQLKQSGAELVRPGASVSLSCKTSGYIFTSYWIHWVKQRSGQGLEWIGRFYPGTGTAYYNENFEGKATLTADRSSSTAYMQLSSLKSDDSAVYFCTREGYGKGNAMDYWGQGTSVTVSS VL: DIVMTQSPSSLTVTTGEKVTLSCKSSQSLLNAGNQKNYLTWYQQKSGQPPELLIYWASTRESGVPDRFTGSGSGTDFTLTVSSVQAEDLAVYYCQNDYYFPFTFGGGTKLEIK |  |  |  |  |  |  |  |  |  |  |  |  |  |  |  |  |  |  | EC50 [10]: 0.207 mg/L; Mean maximum fluorescence intensity (Top MFI) [10]: 6890 MFI
7 | hu299B2-S32A-1 (antibody, V domains shown, also called humanized antibody hu299B2-S32A) VH: QVQLVQSGAEVKKPGASVKVSCKASGYIFTNYWIHWVRQAPGQGLEWMGRIYPGTGNTYYNEKFTGRVTMTRDTSTSTVYMELSSLRSEDTAVYYCAREGYGKGNSMDYWGQGTTVTVSS VL: DIVMTQSPDSLAVSLGERATINCKSSQSLLNAGNQKNYLTWYQQKPGQPPKLLIYWASTRESGVPDRFSGSGSGTDFTLTISSLQAEDVAVYYCQNAYYYPYTFGGGTKLEIK |  |  |  |  |  | 0.201 mg/L | 88800 MFI |  |  |  | 0.407 nM | 29500 MFI | 29.7 nM | 25200 MFI | 0.125 mg/L | 99.2% | 0.022 mg/L | 57.9% | 
8 | hu299B2-S32A-3 (antibody, V domains shown, also called humanized antibody hu299B2-S32A) VH: QVQLVQSGAEVKKPGASVKVSCKASGYIFTNYWIHWVRQAPGQGLEWMGRIYPGTGNTYYNEKFTGRVTMTRDTSTSTVYMELSSLRSEDTAVYYCAREGYGKGNSMDYWGQGTTVTVSS VL: DIVMTQSPDSLAVSLGERVTMNCKSSQSLLNAGNQKNYLTWYQQKPGQPPKLLFYWASTRESGVPDRFSGSGSGTDFTLTISSVQAEDVAVYHCQNAYYYPYTFGGGTKLEIK |  |  |  |  |  | 0.342 mg/L | 103000 MFI |  |  |  | 0.399 nM | 40000 MFI | 26.1 nM | 24300 MFI | 0.092 mg/L | 99.8% | 0.022 mg/L | 69.1% | 
9 | hu299B2-S32A-2 (antibody, V domains shown, also called humanized antibody hu299B2-S32A) VH: QVQLVQSGAEVKKPGASVKVSCKASGYIFTNYWIHWVRQAPGQGLEWMGRIYPGTGNTYYNEKFTGRVTMTRDTSTSTVYMELSSLRSEDTAVYYCAREGYGKGNSMDYWGQGTTVTVSS VL: DIVMTQSPDSLAVSLGERATMNCKSSQSLLNAGNQKNYLTWYQQKPGQPPKLLFYWASTRESGVPDRFSGSGSGTDFTLTISSLQAEDVAVYHCQNAYYYPYTFGGGTKLEIK |  |  |  |  |  | 0.111 mg/L | 90400 MFI |  |  |  | 0.463 nM | 36700 MFI | 24.6 nM | 22900 MFI | 0.129 mg/L | 99.7% | 0.028 mg/L | 68.1% | 
